T1: PAR4 mutant R68A, expressed on COS cells
T1 sequence: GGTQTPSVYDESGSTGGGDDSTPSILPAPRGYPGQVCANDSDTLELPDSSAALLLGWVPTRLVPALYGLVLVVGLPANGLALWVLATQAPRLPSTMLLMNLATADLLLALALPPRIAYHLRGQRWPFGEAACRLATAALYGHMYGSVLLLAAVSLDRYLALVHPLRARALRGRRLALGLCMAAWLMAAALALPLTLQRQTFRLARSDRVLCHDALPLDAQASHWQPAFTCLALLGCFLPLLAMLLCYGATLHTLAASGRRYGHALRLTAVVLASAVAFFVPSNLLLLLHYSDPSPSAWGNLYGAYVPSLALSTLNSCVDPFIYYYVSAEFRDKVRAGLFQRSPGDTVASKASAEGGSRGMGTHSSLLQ

T2: protease-activated receptor 4 (PAR4), wild type, expressed on transiently transfected COS-7 cells
T2 sequence: T1 sequence with A51R

T3: protease-activated receptor 4 (PAR4), wild type, expressed on transiently transfected COS-7 cells (human, UniProt Q96RI0 18-385)
T3 sequence: T1 sequence with A51R

Positions count from the first letter of the chain named.

Chain of factor IXa (P00740 47-191): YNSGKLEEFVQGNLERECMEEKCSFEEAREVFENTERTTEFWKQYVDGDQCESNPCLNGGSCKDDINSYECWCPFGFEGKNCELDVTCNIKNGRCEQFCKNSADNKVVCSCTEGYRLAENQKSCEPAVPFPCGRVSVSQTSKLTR
Chain of factor IXa (P00740 227-461): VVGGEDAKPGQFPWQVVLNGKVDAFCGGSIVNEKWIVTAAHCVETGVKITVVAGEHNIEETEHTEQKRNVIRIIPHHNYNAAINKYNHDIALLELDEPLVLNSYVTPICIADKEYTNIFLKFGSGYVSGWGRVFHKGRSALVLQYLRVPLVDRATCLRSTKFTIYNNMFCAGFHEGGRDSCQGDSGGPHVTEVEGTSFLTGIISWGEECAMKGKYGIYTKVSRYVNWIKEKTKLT
Chain of plasmin (P00747 20-580): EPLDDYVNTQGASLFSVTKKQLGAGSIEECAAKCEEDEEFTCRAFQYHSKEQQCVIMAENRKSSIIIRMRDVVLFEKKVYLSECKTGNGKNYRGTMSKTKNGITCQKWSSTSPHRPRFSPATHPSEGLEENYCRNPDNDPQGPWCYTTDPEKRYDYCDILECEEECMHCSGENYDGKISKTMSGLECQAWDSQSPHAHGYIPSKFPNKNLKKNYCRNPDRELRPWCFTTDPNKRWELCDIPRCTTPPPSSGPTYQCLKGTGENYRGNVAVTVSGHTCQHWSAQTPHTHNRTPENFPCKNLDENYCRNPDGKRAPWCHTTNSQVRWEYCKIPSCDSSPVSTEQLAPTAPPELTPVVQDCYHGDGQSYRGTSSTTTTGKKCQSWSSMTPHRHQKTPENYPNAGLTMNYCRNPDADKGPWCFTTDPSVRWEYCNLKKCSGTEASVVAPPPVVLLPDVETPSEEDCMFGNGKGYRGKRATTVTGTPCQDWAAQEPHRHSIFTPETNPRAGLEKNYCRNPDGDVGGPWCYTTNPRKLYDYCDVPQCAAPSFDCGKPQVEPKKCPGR
Chain of plasmin (P00747 581-810): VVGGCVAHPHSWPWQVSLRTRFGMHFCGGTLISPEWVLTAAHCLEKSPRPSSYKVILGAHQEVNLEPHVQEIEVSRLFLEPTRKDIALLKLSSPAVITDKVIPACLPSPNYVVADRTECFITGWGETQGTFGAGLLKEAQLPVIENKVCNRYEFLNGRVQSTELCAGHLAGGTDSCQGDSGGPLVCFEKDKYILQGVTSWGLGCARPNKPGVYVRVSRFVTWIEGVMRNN

One data set has as its system T1, PAR4 mutant R68A, expressed on COS cells.
Experiment: not given
Regarding thrombin (alpha-thrombin), the “phosphatidylinositol 4,5 diphosphate hydrolysis assay” value was “(R68A) had no effect on PAR4 activation by thrombin or trypsin”.
The same measure, in the same setting: in the case of trypsin it was “(R68A) had no effect on PAR4 activation by thrombin or trypsin”.

For the next data set, the system named is T2, protease-activated receptor 4 (PAR4), wild type, expressed on transiently transfected COS-7 cells.
Experiment: not given
Turning to factor Xa, the “phosphoinositide hydrolysis (activation of PAR4)” value is “Small effects, however, were observed with factor Xa at high concentrations (100 nM)”.
With factor IXa, the “phosphoinositide hydrolysis (activation of PAR4)” value is listed as “had little or no activity against PAR4”.
In the case of urokinase, the “phosphoinositide hydrolysis (activation of PAR4)” value is “had little or no activity against PAR4”.
For the molecule factor VIIa, the “phosphoinositide hydrolysis (activation of PAR4)” value is reported as “had little or no activity against PAR4”.
On the same count and under the same terms, in the case of elastase it was “Chymotrypsin and elastase failed to activate PAR4”; in that of plasmin, “had little or no activity against PAR4”; in that of chymotrypsin, “Chymotrypsin and elastase failed to activate PAR4”.
As to factor XIa, the “phosphoinositide hydrolysis (activation of PAR4)” value is given as “had little or no activity against PAR4”.

The next data set has as its target protease-activated receptor 4 (PAR4), wild type, expressed on transiently transfected COS-7 cells (human) (UniProt Q96RI0). The data set is described as follows: cell-based or functional assay.
trypsin (enzyme): the phosphoinositide hydrolysis, half-maximal concentration (EC50) came out at 5 nM.
Same read-out and setting: in the case of thrombin (alpha-thrombin) (enzyme) it was 5 nM.

In the next data set the target is T3, protease-activated receptor 4 (PAR4), …. The data set is described as follows: cell-based or functional assay.
Turning to GYPGQV [PAR4 activating peptide, hexapeptide GYPGQV], the “EC50 of activation of PAR4 on COS cells” value was about 100000 nM.

The record behind these values is patent publication US7122342 (ZymoGenetics, dated 2006).
